Results on 39 molecules are retold here after US20170173132A1 (IMMATICS BIOTECHNOLOGIES, published 2017).

Square brackets hold non-standard residues; d marks the D form. Ends that are not written are not given here. pT = C[C@@H](OP(=O)(O)O)[C@H](N)C(=O)O

The test concerns the target T1, HLA-A*02:01 (peptide-receptive MHC class I molecule, heavy chain with β2m light chain) (human).
T1 construct: The UV-sensitive placeholder peptide is cleaved on irradiation and exchanged for the tested peptide
Nature of the test: UV-ligand exchange, anti-β2m ELISA; grade of peptide exchange yield (≥10% = +; ≥20% = ++; ≥50 = +++; ≥75% = ++++). The source says: Candidate peptides for T cell based therapies according to the present invention were further tested for their MHC binding capacity (affinity). The individual peptide-MHC complexes were produced by UV-ligand exchange, where a UV-sensitive peptide is cleaved upon UV-irradiation, and exchanged with the peptide of interest as analyzed. Only peptide candidates that can effectively bind and stabilize the peptide-receptive MHC molecules prevent dissociation of the MHC complexes. To determine the yield of the exchange reaction, an ELISA was performed based on the detection of the light chain (β2m) of stabilized MHC complexes. The assay was performed as generally described in Rodenko et al. (Rodenko et al., 2006).
96 well MAXISorp plates (NUNC) were coated over night with 2 ug/ml streptavidin in PBS at room temperature, washed 4× and blocked for 1 h at 37° C. in 2% BSA containing blocking buffer. Refolded HLA-A*02:01/MLA-001 monomers served as standards, covering the range of 15-500 ng/ml. Peptide-MHC monomers of the UV-exchange reaction were diluted 100-fold in blocking buffer. Samples were incubated for 1 h at 37° C., washed four times, incubated with 2 ug/ml HRP conjugated anti-β2m for 1 h at 37° C., washed again and detected with TMB solution that is stopped with […]. Absorption was measured at 450 nm. Candidate peptides that show a high exchange yield (preferably higher than 50%, most preferred higher than 75%) are generally preferred for a generation and production of antibodies or fragments thereof, and/or T cell receptors or fragments thereof, as they show sufficient avidity to the MHC molecules and prevent dissociation of the MHC complexes.
Background: In an ELISA, binding on a coated surface is turned into a signal by an enzyme label.
In turn, ALNPVIYTV [peptide ALNPVIYTV] returned a peptide exchange yield of 20 to 50%. FSFPVSVGV [peptide FSFPVSVGV] gave a peptide exchange yield of 50 to 75%. Molecule SLLSEIQAL [peptide SLLSEIQAL] registered a peptide exchange yield not below 75%. For FIIPTVATA [peptide FIIPTVATA], the peptide exchange yield is not below 75%. As to TIASSIEKA [peptide TIASSIEKA], the peptide exchange yield was in the range of 20 to 50%. Turning to KQLELELEV [peptide KQLELELEV], the peptide exchange yield was in the range of 50 to 75%. In the case of GLVATLQSL [peptide GLVATLQSL], the peptide exchange yield was in the range of 50 to 75%.

In the case of ALTALQNYL [peptide ALTALQNYL], the peptide exchange yield lay within 50 to 75%.

The molecule SMMGLLTNL [peptide SMMGLLTNL] came in with a peptide exchange yield not below 75%. As for ILTELPPGV [peptide ILTELPPGV], the peptide exchange yield fell in the range of 20 to 50%. Molecule GLVQSLTSI [peptide GLVQSLTSI] showed a peptide exchange yield not below 75%. Consider FLDEEVKLI [peptide FLDEEVKLI], for which the peptide exchange yield fell in the range of 50 to 75%. ILFDVVVFL [peptide ILFDVVVFL] showed a peptide exchange yield of 20 to 50%. YIDGLESRV [peptide YIDGLESRV]: the peptide exchange yield is 50 to 75%. Take FLVEHVLTL [peptide FLVEHVLTL]: the peptide exchange yield is not below 75%. As for GLLPTSVSPRV [peptide GLLPTSVSPRV], the figure is 20 to 50%.

Take KAFPFYNTV [peptide KAFPFYNTV]: the peptide exchange yield is 20 to 50%.

For SLVEGEAVHLA [peptide SLVEGEAVHLA], the peptide exchange yield fell in the range of 20 to 50%.

YILLQSPQL [peptide YILLQSPQL] returned a peptide exchange yield of 50 to 75%. As for SLADAVEKV [peptide SLADAVEKV], the figure is 50 to 75%; as for ALAGSSPQV [peptide ALAGSSPQV], 50 to 75%.

The molecule GLSYIYNTV [peptide GLSYIYNTV] came in with a peptide exchange yield of 20 to 50%. FMSKLVPAI [peptide FMSKLVPAI] gave a peptide exchange yield of 50 to 75%. As for KLLDMELEM [peptide KLLDMELEM], the figure is not below 75%. The molecule GLLGFQAEA [peptide GLLGFQAEA] registered a peptide exchange yield not below 75%. SLAWDVPAA [peptide SLAWDVPAA] had a peptide exchange yield of 50 to 75%. In the case of TLLGLAVNV [peptide TLLGLAVNV], the peptide exchange yield was not below 75%. As for SLFSVPFFL [peptide SLFSVPFFL], the figure is not below 75%; as for KMPEHISTV [peptide KMPEHISTV], 50 to 75%; as for GLHSLPPEV [peptide GLHSLPPEV], 50 to 75%. In turn, ALEA[pT]QLYL [peptide ALEAUQLYL] showed a peptide exchange yield of 50 to 75%.

SLAEPRVSV [peptide SLAEPRVSV]: the peptide exchange yield was in the range of 50 to 75%. ALEEQLHQV [peptide ALEEQLHQV] returned a peptide exchange yield of 20 to 50%.

Regarding LLM[pT]VAGLKL [peptide LLMUVAGLKL], the peptide exchange yield is not below 75%. Turning to FLSSEAANV [peptide FLSSEAANV], the peptide exchange yield fell in the range of 20 to 50%. As to SLNDQGYLL [peptide SLNDQGYLL], the peptide exchange yield lay within 50 to 75%. Then KLYEGIPVL [peptide KLYEGIPVL], with 20 to 50%; and SLLTEPALV [peptide SLLTEPALV], with 50 to 75%; and SLFPSLVVV [peptide SLFPSLVVV], with 50 to 75%.
